Assay results as given in US20160114000A1 (Merck Sharp & Dohme, published 2016).
*1 amine or outer side, *2 acyl side, *3 side chain or, on linkers, in order; H or OH if unused. Where no end group is shown, it is not given here. Side-chain parts run from the residue outwards. [ ]: non-standard residue; d: D form. The star is where a group is joined. γGlu = O=C(O)[C@H](CCC(=O)[*:2])N[*:1]; Palmitoyl = CCCCCCCCCCCCCCCC(=O)*; Ac4c = NC1(C(=O)O)CCC1

Experiments:
human glucagon receptor = human glucagon receptor (human, UniProt P47871 26-477); assay: cell-based or functional assay
human glucagon receptor, sequence (P47871 26-477): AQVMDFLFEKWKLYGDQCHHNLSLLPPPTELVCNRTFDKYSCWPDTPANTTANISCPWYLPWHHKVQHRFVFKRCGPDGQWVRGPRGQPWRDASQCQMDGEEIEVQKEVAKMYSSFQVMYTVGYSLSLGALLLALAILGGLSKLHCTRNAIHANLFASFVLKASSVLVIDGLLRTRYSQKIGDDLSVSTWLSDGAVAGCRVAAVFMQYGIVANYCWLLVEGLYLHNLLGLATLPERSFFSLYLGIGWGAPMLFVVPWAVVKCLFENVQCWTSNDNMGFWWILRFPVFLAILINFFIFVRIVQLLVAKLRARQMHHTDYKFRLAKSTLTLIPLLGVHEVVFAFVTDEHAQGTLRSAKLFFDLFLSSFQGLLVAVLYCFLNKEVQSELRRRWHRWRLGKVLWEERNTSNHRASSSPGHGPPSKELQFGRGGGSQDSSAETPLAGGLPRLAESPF

human GLP-1 receptor = human GLP-1 receptor (human, UniProt P43220 24-463); assay: cell-based or functional assay

Binder	GCGR EC50 (nM) human; cAMP production (HitHunter cAMPXS), 20% human serum (human glucagon receptor) [nM]	hGCGR/hGLP1R (hTone): ratio of cAMP EC50 at human GCGR to cAMP EC50 at human GLP1R (human glucagon receptor) [ratio]	GLPR1 EC50 (nM) human; cAMP production (HitHunter cAMPXS), 20% human serum (human GLP-1 receptor) [nM]
H[dS]QGTFTSDK([γGlu-γGlu-Palmitoyl])SKYLDVRAAQDFVQWLLDT-NH2 (N-terminus assumed; SMILES CCCCCCCCCCCCCCCC(=O)N[C@@H](CCC(=O)N[C@@H](CCC(=O)NCCCC[C@H](NC(=O)[C@H](CC(=O)O)NC(=O)[C@H](CO)NC(=O)[C@@H](NC(=O)[C@H](Cc1ccccc1)NC(=O)[C@@H](NC(=O)CNC(=O)[C@H](CCC(N)=O)NC(=O)[C@@H](CO)NC(=O)[C@@H](N)Cc1c[nH]cn1)[C@@H](C)O)[C@@H](C)O)C(=O)N[C@@H](CO)C(=O)N[C@@H](CCCCN)C(=O)N[C@@H](Cc1ccc(O)cc1)C(=O)N[C@@H](CC(C)C)C(=O)N[C@@H](CC(=O)O)C(=O)N[C@H](C(=O)N[C@@H](CCCNC(=N)N)C(=O)N[C@@H](C)C(=O)N[C@@H](C)C(=O)N[C@@H](CCC(N)=O)C(=O)N[C@@H](CC(=O)O)C(=O)N[C@@H](Cc1ccccc1)C(=O)N[C@H](C(=O)N[C@@H](CCC(N)=O)C(=O)N[C@@H](Cc1c[nH]c2ccccc12)C(=O)N[C@@H](CC(C)C)C(=O)N[C@@H](CC(C)C)C(=O)N[C@@H](CC(=O)O)C(=O)N[C@H](C(N)=O)[C@@H](C)O)C(C)C)C(C)C)C(=O)O)C(=O)O) [Co-agonist Peptide 3]	0.08	0.6	0.13
H[Ac4c]QGTFTSDK([γGlu-γGlu-Palmitoyl])SKYLDERAAQDFVQWLLDT-NH2 (N-terminus assumed; SMILES CCCCCCCCCCCCCCCC(=O)N[C@@H](CCC(=O)N[C@@H](CCC(=O)NCCCC[C@H](NC(=O)[C@H](CC(=O)O)NC(=O)[C@H](CO)NC(=O)[C@@H](NC(=O)[C@H](Cc1ccccc1)NC(=O)[C@@H](NC(=O)CNC(=O)[C@H](CCC(N)=O)NC(=O)C1(NC(=O)[C@@H](N)Cc2c[nH]cn2)CCC1)[C@@H](C)O)[C@@H](C)O)C(=O)N[C@@H](CO)C(=O)N[C@@H](CCCCN)C(=O)N[C@@H](Cc1ccc(O)cc1)C(=O)N[C@@H](CC(C)C)C(=O)N[C@@H](CC(=O)O)C(=O)N[C@@H](CCC(=O)O)C(=O)N[C@@H](CCCNC(=N)N)C(=O)N[C@@H](C)C(=O)N[C@@H](C)C(=O)N[C@@H](CCC(N)=O)C(=O)N[C@@H](CC(=O)O)C(=O)N[C@@H](Cc1ccccc1)C(=O)N[C@H](C(=O)N[C@@H](CCC(N)=O)C(=O)N[C@@H](Cc1c[nH]c2ccccc12)C(=O)N[C@@H](CC(C)C)C(=O)N[C@@H](CC(C)C)C(=O)N[C@@H](CC(=O)O)C(=O)N[C@H](C(N)=O)[C@@H](C)O)C(C)C)C(=O)O)C(=O)O) [Co-agonist Peptide 13]	0.06	1.25	0.05
H[dS]QGTFTSDK([γGlu-Palmitoyl])SKYLDARAAQDFVQWLLDT-NH2 (N-terminus assumed; SMILES CCCCCCCCCCCCCCCC(=O)N[C@@H](CCC(=O)NCCCC[C@H](NC(=O)[C@H](CC(=O)O)NC(=O)[C@H](CO)NC(=O)[C@@H](NC(=O)[C@H](Cc1ccccc1)NC(=O)[C@@H](NC(=O)CNC(=O)[C@H](CCC(N)=O)NC(=O)[C@@H](CO)NC(=O)[C@@H](N)Cc1c[nH]cn1)[C@@H](C)O)[C@@H](C)O)C(=O)N[C@@H](CO)C(=O)N[C@@H](CCCCN)C(=O)N[C@@H](Cc1ccc(O)cc1)C(=O)N[C@@H](CC(C)C)C(=O)N[C@@H](CC(=O)O)C(=O)N[C@@H](C)C(=O)N[C@@H](CCCNC(=N)N)C(=O)N[C@@H](C)C(=O)N[C@@H](C)C(=O)N[C@@H](CCC(N)=O)C(=O)N[C@@H](CC(=O)O)C(=O)N[C@@H](Cc1ccccc1)C(=O)N[C@H](C(=O)N[C@@H](CCC(N)=O)C(=O)N[C@@H](Cc1c[nH]c2ccccc12)C(=O)N[C@@H](CC(C)C)C(=O)N[C@@H](CC(C)C)C(=O)N[C@@H](CC(=O)O)C(=O)N[C@H](C(N)=O)[C@@H](C)O)C(C)C)C(=O)O) [Co-agonist Peptide 1]	0.042	0.88	0.048
H[dS]QGTFTSDK([γGlu-γGlu-Palmitoyl])SLYLDERAAQDFVQWLLDT-NH2 (N-terminus assumed; SMILES CCCCCCCCCCCCCCCC(=O)N[C@@H](CCC(=O)N[C@@H](CCC(=O)NCCCC[C@H](NC(=O)[C@H](CC(=O)O)NC(=O)[C@H](CO)NC(=O)[C@@H](NC(=O)[C@H](Cc1ccccc1)NC(=O)[C@@H](NC(=O)CNC(=O)[C@H](CCC(N)=O)NC(=O)[C@@H](CO)NC(=O)[C@@H](N)Cc1c[nH]cn1)[C@@H](C)O)[C@@H](C)O)C(=O)N[C@@H](CO)C(=O)N[C@@H](CC(C)C)C(=O)N[C@@H](Cc1ccc(O)cc1)C(=O)N[C@@H](CC(C)C)C(=O)N[C@@H](CC(=O)O)C(=O)N[C@@H](CCC(=O)O)C(=O)N[C@@H](CCCNC(=N)N)C(=O)N[C@@H](C)C(=O)N[C@@H](C)C(=O)N[C@@H](CCC(N)=O)C(=O)N[C@@H](CC(=O)O)C(=O)N[C@@H](Cc1ccccc1)C(=O)N[C@H](C(=O)N[C@@H](CCC(N)=O)C(=O)N[C@@H](Cc1c[nH]c2ccccc12)C(=O)N[C@@H](CC(C)C)C(=O)N[C@@H](CC(C)C)C(=O)N[C@@H](CC(=O)O)C(=O)N[C@H](C(N)=O)[C@@H](C)O)C(C)C)C(=O)O)C(=O)O) [Co-agonist Peptide 11]	0.06	0.91	0.06
HXQGTXTSDKSKYLDERAAQDFVQWLLDT (D-Ser at 2; p-fluorophenylalanine (pFF) at 6; Lys 10 conjugated to γEγE-C16 (palmitoyl); C-terminal amide) [Co-agonist Peptide 9]	0.05	0.93	0.06
HXQGTFTSDXSKYLDARAAQDFVQWLLDT (D-Ser at 2; para-aminomethyl phenylalanine (pAF) at 10 conjugated to γEγE-C16 (palmitoyl); C-terminal amide) [Co-agonist Peptide 12]	0.05	0.98	0.05
HXQGTFTSDKSKYLDERAAQDFVQWLLDT (D-Ser at 2; Lys 10 conjugated to γEγE-C16 (palmitoyl); C-terminal amide) [Comparator Co-agonist Peptide 6]	0.009	1.3	0.007
HXQGTFTSDKSKYLDERAAQDFVQWLXDT (D-Ser at 2; Lys 10 conjugated to γEγE-C16 (palmitoyl); methionine sulfone at 27; C-terminal amide) [Co-agonist Peptide 10]	0.02	1.1	0.02
H[dS]QGTFTSDK([γGlu-γGlu-Palmitoyl])SKYLDARAAQDFVQWLLDT-NH2 (N-terminus assumed; SMILES CCCCCCCCCCCCCCCC(=O)N[C@@H](CCC(=O)N[C@@H](CCC(=O)NCCCC[C@H](NC(=O)[C@H](CC(=O)O)NC(=O)[C@H](CO)NC(=O)[C@@H](NC(=O)[C@H](Cc1ccccc1)NC(=O)[C@@H](NC(=O)CNC(=O)[C@H](CCC(N)=O)NC(=O)[C@@H](CO)NC(=O)[C@@H](N)Cc1c[nH]cn1)[C@@H](C)O)[C@@H](C)O)C(=O)N[C@@H](CO)C(=O)N[C@@H](CCCCN)C(=O)N[C@@H](Cc1ccc(O)cc1)C(=O)N[C@@H](CC(C)C)C(=O)N[C@@H](CC(=O)O)C(=O)N[C@@H](C)C(=O)N[C@@H](CCCNC(=N)N)C(=O)N[C@@H](C)C(=O)N[C@@H](C)C(=O)N[C@@H](CCC(N)=O)C(=O)N[C@@H](CC(=O)O)C(=O)N[C@@H](Cc1ccccc1)C(=O)N[C@H](C(=O)N[C@@H](CCC(N)=O)C(=O)N[C@@H](Cc1c[nH]c2ccccc12)C(=O)N[C@@H](CC(C)C)C(=O)N[C@@H](CC(C)C)C(=O)N[C@@H](CC(=O)O)C(=O)N[C@H](C(N)=O)[C@@H](C)O)C(C)C)C(=O)O)C(=O)O) [Co-agonist Peptide 5]	0.03	0.9	0.033
H[dS]QGTFTSDK([γGlu-γGlu-Palmitoyl])SKYLEARAAQDFVQWLLDT-NH2 (N-terminus assumed; SMILES CCCCCCCCCCCCCCCC(=O)N[C@@H](CCC(=O)N[C@@H](CCC(=O)NCCCC[C@H](NC(=O)[C@H](CC(=O)O)NC(=O)[C@H](CO)NC(=O)[C@@H](NC(=O)[C@H](Cc1ccccc1)NC(=O)[C@@H](NC(=O)CNC(=O)[C@H](CCC(N)=O)NC(=O)[C@@H](CO)NC(=O)[C@@H](N)Cc1c[nH]cn1)[C@@H](C)O)[C@@H](C)O)C(=O)N[C@@H](CO)C(=O)N[C@@H](CCCCN)C(=O)N[C@@H](Cc1ccc(O)cc1)C(=O)N[C@@H](CC(C)C)C(=O)N[C@@H](CCC(=O)O)C(=O)N[C@@H](C)C(=O)N[C@@H](CCCNC(=N)N)C(=O)N[C@@H](C)C(=O)N[C@@H](C)C(=O)N[C@@H](CCC(N)=O)C(=O)N[C@@H](CC(=O)O)C(=O)N[C@@H](Cc1ccccc1)C(=O)N[C@H](C(=O)N[C@@H](CCC(N)=O)C(=O)N[C@@H](Cc1c[nH]c2ccccc12)C(=O)N[C@@H](CC(C)C)C(=O)N[C@@H](CC(C)C)C(=O)N[C@@H](CC(=O)O)C(=O)N[C@H](C(N)=O)[C@@H](C)O)C(C)C)C(=O)O)C(=O)O) [Co-agonist Peptide 8]	0.02	0.9	0.02
